Target: biotinylated VP1 pentamer of BKV genotype I (BK virus genotype I) (UniProt P03088)
Experiment: BLI, biotinylated VP1 pentamer on streptavidin sensor, mAb 0 to 40 nM

## MTX005 from Memo Therapeutics AG (referred as 319C07 in WO2021/250097) (antibody)
  Kd: 0.0179 µM
